According to article PMC8635433 (2021):

T1: coxsackie and adenovirus receptor (CAR), immobilised for SPR (UniProt P78310 20-365)
T1 chain: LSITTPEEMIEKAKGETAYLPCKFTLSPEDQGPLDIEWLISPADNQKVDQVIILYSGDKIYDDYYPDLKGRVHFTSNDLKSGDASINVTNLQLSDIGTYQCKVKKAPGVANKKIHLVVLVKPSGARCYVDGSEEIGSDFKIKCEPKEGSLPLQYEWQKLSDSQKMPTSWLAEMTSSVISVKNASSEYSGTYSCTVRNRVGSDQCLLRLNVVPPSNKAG

T2: CD46, immobilised for SPR (UniProt P15529 35-392)
T2 chain: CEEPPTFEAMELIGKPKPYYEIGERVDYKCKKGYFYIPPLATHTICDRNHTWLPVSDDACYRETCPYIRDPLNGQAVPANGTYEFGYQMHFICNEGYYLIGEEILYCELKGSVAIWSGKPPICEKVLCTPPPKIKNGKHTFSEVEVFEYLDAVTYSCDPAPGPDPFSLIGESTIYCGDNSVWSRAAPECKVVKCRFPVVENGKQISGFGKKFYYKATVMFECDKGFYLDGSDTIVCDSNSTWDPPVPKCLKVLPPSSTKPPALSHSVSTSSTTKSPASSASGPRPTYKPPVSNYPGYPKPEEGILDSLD

B1: ChAdOx1 fiber knob protein (domain or fragment)
chain: GALTAGNKEDDKLTLWTTPDPSPNCQLLSDRDAKFTLCLTKCGSQILGTVAVAAVTVGSALNPINDTVKSAIVFLRFDSDGVLMSNSSMVGDYWNFREGQTTQSVAYTNAVGFMPNLGAYPKTQSKTPKNSIVSQVYLNGETTMPMTLTITFNGTDEKDTTPVSTYSMTFTWQWTGDYKDKNITFATNSFTFSYMAQE
B2: HAdV-B35 fiber knob protein (domain or fragment)
chain: FNNGDICIKDSINTLWTGINPPPNCQIVENTNTNDGKLTLVLVKNGGLVNGYVSLVGVSDTVNQMFTQKTANIQLRLYFDSSGNLLTEESDLKIPLKNKSSTATSETVASSKAFMPSTTAYPFNTTTRDSENYIHGICYYMTSYDRSLFPLNISIMLNSRMISSNVAYAIQFEWNLNASESPESNIATLTTSPFFFSYITEDDN
B3: HAdV-C5 fiber knob protein (domain or fragment)
chain: TGAITVGNKNNDKLTLWTTPAPSPNCRLNAEKDAKLTLVLTKCGSQILATVSVLAVKGSLAPISGTVQSAHLIIRFDENGVLLNNSFLDPEYWNFRNGDLTEGTAYTNAVGFMPNLSAYPKSHGKTAKSNIVSQVYLNGDKTKPVTLTITLNGTQETGDTTPSAYSMSFSWDWSGHNYINEIFATSSYTFSYIAQE

Legend:
Assay in all cases: SPR
[1] = biological target: T1, coxsackie and adenovirus receptor …
[2] = biological target: T2, CD46, immobilised for SPR
[3] = biological target: T2, CD46, immobilised for SPR

Row | Binder | koff [1] | Kd [2] | koff [3]
1 | B1 | 0.00018 s⁻¹ |  | 
2 | B2 |  | 4.38 nM | 0.000994 s⁻¹
3 | B3 | 0.000109 s⁻¹ |  | 
